{"source": "paper PMC3937638", "origin": "cited, not measured here", "target": "His45 (UniProt position 80, RKIGFHVCAAG)", "settings": "HA8(AN)-bound Link_TSG6", "data": [{"substance": "TSG-6 Link module (Link_TSG6; tumor necrosis factor-stimulated gene-6 protein, hyaluronan-binding domain) (Homo sapiens)", "values": [{"measurement": "pKa", "value": 5.7}]}]}
